Assay results reported in US20100240066A1 (MCGILL UNIVERSITY, published 2010).
Read-outs that look alike come from different tables or passages of the source. Where no end group is shown, it is not given here.

T1: VE-cadherin/Fc chimeric protein (UniProt P33151 48-593)
T1 construct: Bought from R&D Systems; also called vascular endothelial (VE)-cadherin/Fc chimeric protein; not shown: Fc part not described
T1 sequence (looked up): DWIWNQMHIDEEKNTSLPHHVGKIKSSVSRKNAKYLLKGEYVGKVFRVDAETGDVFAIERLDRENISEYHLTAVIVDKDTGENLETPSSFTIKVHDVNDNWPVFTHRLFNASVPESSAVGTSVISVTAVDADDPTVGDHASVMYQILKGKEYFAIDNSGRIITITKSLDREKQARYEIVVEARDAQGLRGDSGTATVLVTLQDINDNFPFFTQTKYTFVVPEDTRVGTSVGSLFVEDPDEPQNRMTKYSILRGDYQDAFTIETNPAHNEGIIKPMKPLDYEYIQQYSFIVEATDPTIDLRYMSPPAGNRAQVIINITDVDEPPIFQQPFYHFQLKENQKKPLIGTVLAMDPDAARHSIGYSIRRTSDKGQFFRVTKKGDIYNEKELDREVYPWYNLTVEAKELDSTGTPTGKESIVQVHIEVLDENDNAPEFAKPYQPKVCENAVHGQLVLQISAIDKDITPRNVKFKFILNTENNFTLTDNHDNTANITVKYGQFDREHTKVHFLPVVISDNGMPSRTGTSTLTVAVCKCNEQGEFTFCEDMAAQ

T2: E-cadherin/Fc chimeric protein (human, UniProt P12830 155-707)
T2 construct: range 155-707; Bought from R&D Systems; also called E-cad/Fc; human E-cadherin/Fc chimeric protein; not shown: Fc region of human IgG1
T2 sequence (looked up): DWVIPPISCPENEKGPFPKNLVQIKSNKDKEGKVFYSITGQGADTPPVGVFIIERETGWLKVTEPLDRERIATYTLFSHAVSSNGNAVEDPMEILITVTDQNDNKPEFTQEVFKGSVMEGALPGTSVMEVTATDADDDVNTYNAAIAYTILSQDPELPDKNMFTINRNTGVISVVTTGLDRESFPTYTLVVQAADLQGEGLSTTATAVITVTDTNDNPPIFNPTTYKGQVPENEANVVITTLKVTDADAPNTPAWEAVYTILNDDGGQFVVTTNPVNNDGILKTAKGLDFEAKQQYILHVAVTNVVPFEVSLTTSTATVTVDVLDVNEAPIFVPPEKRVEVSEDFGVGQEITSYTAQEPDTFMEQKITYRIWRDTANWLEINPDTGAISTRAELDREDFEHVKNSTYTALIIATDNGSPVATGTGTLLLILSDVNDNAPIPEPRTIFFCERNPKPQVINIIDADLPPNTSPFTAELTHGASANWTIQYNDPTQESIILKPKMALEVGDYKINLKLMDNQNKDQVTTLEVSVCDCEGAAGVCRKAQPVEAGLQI

T3: N-cadherin/Fc chimeric protein (human, UniProt P19022 160-724)
T3 construct: range 160-724; Bought from R&D Systems; also called N-cad/Fc; human N-cadherin/Fc chimeric protein; not shown: Fc region of human IgG1
T3 sequence (looked up): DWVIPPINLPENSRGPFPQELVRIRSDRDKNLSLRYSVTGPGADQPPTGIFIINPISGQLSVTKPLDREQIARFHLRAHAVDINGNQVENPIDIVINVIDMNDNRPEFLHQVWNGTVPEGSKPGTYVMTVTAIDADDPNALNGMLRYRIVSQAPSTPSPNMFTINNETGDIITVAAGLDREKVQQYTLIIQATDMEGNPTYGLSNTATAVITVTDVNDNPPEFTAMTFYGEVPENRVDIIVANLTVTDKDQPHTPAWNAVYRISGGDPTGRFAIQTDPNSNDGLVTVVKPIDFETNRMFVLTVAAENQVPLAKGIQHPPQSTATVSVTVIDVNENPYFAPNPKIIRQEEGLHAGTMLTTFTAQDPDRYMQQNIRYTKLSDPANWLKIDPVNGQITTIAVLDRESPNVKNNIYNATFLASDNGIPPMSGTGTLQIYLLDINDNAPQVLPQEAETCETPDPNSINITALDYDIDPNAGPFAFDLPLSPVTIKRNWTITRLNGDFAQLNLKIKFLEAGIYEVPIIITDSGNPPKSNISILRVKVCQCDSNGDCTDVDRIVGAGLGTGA


Key:
[1] = molecular target: T1, VE-cadherin/Fc chimeric protein; experiment: phage ELISA
Description: (§1) The phage clones shown to bind to the N-cadherin/Fc chimeric protein by ELISA were also evaluated for their ability to bind to E-cadherin/Fc and VE-cadherin/Fc chimeric proteins. The phage clones shown to bind to the E-cadherin/Fc chimeric protein by ELISA were also evaluated for their ability to bind to N-cadherin/Fc and VE-cadherin/Fc chimeric proteins. The same ELISA protocol described in the previous section was used to perform this evaluation with the exception that the wells were coated with either 100 ng N-cadherin/Fc, E-cadherin/Fc or VE-cadherin/Fc chimeric protein (R&D Systems, Minneapolis, Minn.).

[2] = molecular target: T2, E-cadherin/Fc chimeric protein; experiment: phage ELISA
Description: as §1

[3] = molecular target: T3, N-cadherin/Fc chimeric protein; experiment: phage ELISA, 1.2 mM calcium
Description: (§2) The binding of each clone to the cadherin/Fc chimeric proteins was confirmed by ELISA. Wells of ProBind microtiter plates (Falcon) were coated with either N-cadherin/Fc or E-cadherin/Fc chimeric protein (100 ng/well) or human IgG1 (which contains the Fc fragment) (100 ng/well). After blocking the nonspecific sites with TBS containing 3% BSA and 1.2 mM CaCl₂ for 1 h at 37° C., phage clones (10⁹ pfu) diluted in TBST containing 3% BSA and 1.2 mM CaCl₂ (100 μl/well). Non-coated wells were also used to exclude any phage that bound to the plastic surface. After 1 h incubation at room temperature, wells were washed 3 times with TBST containing 3% BSA and 1.2 mM CaCl₂. M13 phage without any insert were used to control the non-specific binding of the phage itself to the target. Monoclonal anti-M13 antibody conjugated to horseradish peroxidase (Amersham Biosciences, Piscataway, N.J.) was diluted in TBST containing 3% BSA and 1.2 mM CaCl₂ (1:2,000) and added to each well (100 μl/well). After 1 h incubation at room temperature, wells were washed three times with TBST containing 3% BSA and 1.2 mM CaCl₂ and once with TBS containing 1.2 mM CaCl₂. Horseradish peroxidase substrate, TMB (Sigma), was added to each well (100 μl/well and after color development the reaction was stopped by addition of 100 μl 0.5 M sulphuric acid to each well. The intensity of the color was measured at 450 nm.
An ELISA was performed in the presence of either 1.2 mM calcium or 2 mM EDTA. […] The signal obtained in the presence of EDTA was lower than in the presence of calcium.

[4] = molecular target: T3, N-cadherin/Fc chimeric protein; experiment: phage ELISA
Description: as §2, §1

[5] = molecular target: T1, VE-cadherin/Fc chimeric protein; experiment: phage ELISA; remark: listed apart in the source
Description: as §2, §1

[6] = molecular target: T2, E-cadherin/Fc chimeric protein; experiment: phage ELISA; remark: listed apart in the source
Description: as §2, §1

[7] = molecular target: T2, E-cadherin/Fc chimeric protein; experiment: summary table, column Peptide Binds to E-cad/Fc; assay not named
[8] = molecular target: T3, N-cadherin/Fc chimeric protein; experiment: summary table, column Peptide Binds to N-cad/Fc; assay not named

Row | Binder | binding result [1] | binding result [2] | other results
1 | WELRVSSPC (whole phage in the assay) [phage clone Nc a7] | no binding (tested: 10^9 pfu) | no binding (tested: 10^9 pfu) | 
2 | WTVCPIGNC (not fully specified; cysteine pairing not given here; also: displayed on M13 phage pIII, whole phage in the assay) [phage clone Nc 8] | no binding (tested: 10^9 pfu) | no binding (tested: 10^9 pfu) | 
3 | HWYITTGPVREK (whole phage in the assay) [phage clone Nc 12-01] | no binding (tested: 10^9 pfu) | no binding (tested: 10^9 pfu) | binding result [3]: binds
4 | WQMVLCPAC (not fully specified; cysteine pairing not given here; also: displayed on M13 phage pIII, whole phage in the assay) [phage clone Ec a3] |  |  | binding result [4]: binds; binding result [5]: no binding (tested: 10^9 pfu); binding result [6]: binds
5 | H-WELRVSSP-NH2 (Synthetic linear peptide) [H-WELRVSSP-NH2] |  |  | binding result [7]: no binding; binding result [8]: binds
6 | WELCVSSSC (not fully specified; cysteine pairing not given here; also: displayed on M13 phage pIII, whole phage in the assay) [phage clone Nc 25] | no binding (tested: 10^9 pfu) | no binding (tested: 10^9 pfu) | 
7 | WHTSWSDTY (whole phage in the assay) [phage clone Nc 19] | no binding (tested: 10^9 pfu) | no binding (tested: 10^9 pfu) | 
8 | H-EWMIHYDSALTS-NH2 (Synthetic linear peptide) [H-EWMIHYDSALTS-NH2] |  |  | binding result [7]: binds; binding result [8]: binds
9 | CSRPQSGLC (not fully specified; cysteine pairing not given here; also: displayed on M13 phage pIII, whole phage in the assay) [phage clone Ec a23] |  |  | binding result [4]: binds; binding result [5]: no binding (tested: 10^9 pfu); binding result [6]: binds
10 | SWTLYTPSGQSK (whole phage in the assay) [phage clone Nc 12-04] | no binding (tested: 10^9 pfu) | no binding (tested: 10^9 pfu) | 
11 | H-HWYITTGPVREK-NH2 (Synthetic linear peptide) [H-HWYITTGPVREK-NH2] |  |  | binding result [7]: no binding; binding result [8]: binds
12 | CSKYNSPLC (not fully specified; cysteine pairing not given here; also: displayed on M13 phage pIII, whole phage in the assay) [phage clone Ec a4] |  |  | binding result [4]: binds; binding result [5]: no binding (tested: 10^9 pfu); binding result [6]: binds
13 | WTWHWPPCC (whole phage in the assay) [phage clone Ec a22] |  |  | binding result [4]: binds; binding result [5]: no binding (tested: 10^9 pfu); binding result [6]: binds
14 | WEVCLTEKC (not fully specified; cysteine pairing not given here; also: displayed on M13 phage pIII, whole phage in the assay) [phage clone Nc 15] | no binding (tested: 10^9 pfu) | no binding (tested: 10^9 pfu) | 
15 | WEVRLTEKC (whole phage in the assay) [phage clone Nc a3] | no binding (tested: 10^9 pfu) | no binding (tested: 10^9 pfu) | 
16 | WLQPYFPSY (whole phage in the assay) [phage clone Nc a5] | no binding (tested: 10^9 pfu) | no binding (tested: 10^9 pfu) | 
17 | H-WYVCVGAH-NH2 (Synthetic linear peptide) [H-WYVCVGAH-NH2] |  |  | binding result [7]: no binding; binding result [8]: binds
18 | SWTLYTPSGQSK (whole phage in the assay) [phage clone Nc 12-a2] | no binding (tested: 10^9 pfu) | no binding (tested: 10^9 pfu) | 
19 | WLQPYFPSY (whole phage in the assay) [phage clone Nc 1] | no binding (tested: 10^9 pfu) | no binding (tested: 10^9 pfu) | 
20 | WEFSICETC (not fully specified; cysteine pairing not given here; also: displayed on M13 phage pIII, whole phage in the assay) [phage clone Nc 5] | no binding (tested: 10^9 pfu) | no binding (tested: 10^9 pfu) | 
21 | H-SWELYYPLRANL-NH2 (Synthetic linear peptide) [H-SWELYYPLRANL-NH2] |  |  | binding result [7]: binds; binding result [8]: binds
